Measured values taken from the supplement of paper PMC12764529.
± gives the half width of the 95% confidence interval.

Assay: folding stability dG unfold (combined trypsin and chymotrypsin); higher = more stable
Description: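 Folding stability of de novo designed mini-proteins (<80 aa, no Cys; designed by TrROS, TrMRF, ProteinMPNN and the joint model) was measured by cDNA display proteolysis with trypsin and chymotrypsin. Each protease was used at 11 concentrations in a threefold dilution series plus a no-protease condition. K50 was inferred by Bayesian fitting of sequencing counts, and dG unfold was derived against a sequence-predicted unfolded-state K50 (Tsuboyama et al. method). Sequences shown include variable-length N-terminal GS-type padding (SAGGSAGG...) inside a display construct carrying a PA tag. Rows were kept only if the AF2 dimer inter-PAE was >15, to exclude likely homo-oligomers.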

Sequence	folding stability dG unfold [kcal/mol]
GEVLVAKIELKVKKKLPEKPEEVEEKLELEFVAPIDNPEALEKAEEIAKKLAEEIGATEVKIKVEPYILPES [r1_346_TrMRF]	< -1
GMILFKVKLTDPKGKKEIAEVDIPIPVPEEVLPAMPEELKEKLREEAEKAAEEIREKLGNVLVEPEFTLLES [r1_115_JUSTAS]	< -1
MKVLKTETKPIPGSGKIEVRVEYEVDGFFDPATGKPYSPDYLVTEKKTITVPPDSDDEIVTSSITFHPNLKS [r1_147_JUSTAS]	< -1
PEPGAVETRETDYIDPNNNNKYKATITTTRDPNSDLATVNTTIKLPNGETLNYSATINPNPGTVTSTTSISS [r1_144_JUSTAS]	-0.628 ± 0.48
SAALGPEKAEELAEALARELAEKAGVEKVEAKVEPLPDERWVAEIYFPPVGKKARVVFEKDKPRLVEVGSAG [r14_925_TrMRF]	< -1
SAGDALKEAAKNGKPAELPIRFHFYQIKEPERDKDGGPRYKMKPIHTVEFPIRVDKVDPGNGDIKIDMPSAG [r5_5_TrROS]	< -1
SAGDRKVIHINGFEPEQFRKIIREAKDKGPPGDRIWIPSPEYVDELKELDPNLPVEVHNMDNGEWQEIESAG [r5_391_TrROS]	< -1
SAGFDFPEDFTPIARDGVNSLWQGDGPVLLALRGPEGGSAVLPFKPGNPEEIFPLIEALAAGGVVDPSFSAG [r14_12_TrMRF]	< -1
SAGGAMTPDGTSVTIPYEAKTPTGEASEEEARERIEEELAARPDVALTRVEFEREGDRIKATVYTRVPRSAG [r5_688_JUSTAS]	< -1
SAGGDIEVEPTDNMPQVEIRDPEGKERKIVMPPNPNGQYNIQVHNPDDGKKKTFPVRSVDDALEWLKSAGGS [r8_230_TrROS]	< -1
SAGGDKIQEKLQKEGGFRPTNTEVNGGKPKIHIHWPNPERRKKLKEKLKKDPGIEEVQIQPMDPEDMSAGGS [r16_671_TrROS]	< -1
SAGGDNRQEREFHIPDPDGEDINITMEYNPSNGRTRVKVQPPEDGKPIKEIPADEMPPEAQDILKKISAGGS [r8_32_TrROS]	< -1
SAGGDWLDNFPPGWKIKLERPNGKPKTYTIPPNSSPDDLKKLKLPNGYKLKIDEVTPNGQMTFRLPPSAGGS [r16_103_TrROS]	< -1
SAGGDYVSITIDDPNPGMPPEELAQEIIRELNPDGFPIKPKKIEPERHDGRPKVTITFRVDDPEAIKKSAGG [r13_979_TrROS]	< -1
SAGGEDIIKELLDQLPPGDKNAVLEFDPPDGKLEPKEPSPGGYMFEPKNPENGEKWTFVIRDDKIEPVSAGG [r13_803_TrROS]	< -1
SAGGEISIMFKSPEGVKEIAEELEENGLEVDVSPVPGYWMVRIQPKPKPPPTPEAAEKAQRDPDQANKSAGG [r13_8_TrROS]	< -1
SAGGFNLKIMPMRMPRRKYDPEDGEPKKPEPVKMWMIQVEAKPGQTVSEIADELQKEFPGDNIMVMPSAGGS [r8_30_TrROS]	< -1
SAGGFPISIERWDPDGKKRRREIPMDDPDEIKEFLDDLPPDRPVRIHMPNPQHFNALKNAGFDEVEMMSAGG [r13_476_TrROS]	< -1
SAGGFYRLKIYNPDNGQPIEFPINWDEVEEAIKNGDLDELAEHYPGAPIDKIEVEPVKPVPPVPPDEKSAGG [r13_629_TrROS]	< -1
SAGGGMEIVTTKESTLPEDVKVKESTTTFPDGTSIKTVTLTSPKPGDTKTITIPVKPGGPGLSTTVTESAGG [r13_323_JUSTAS]	< -1

Sequence	folding stability dG unfold [kcal/mol]
SAGGGMRPVPVSEIIAKLKEEGYTVSKVSVYRPGSGEKLGTYDPNTPVVIPADEPDAVIEPVVEPKGSAGGS [r8_243_JUSTAS]	< -1
SAGGGPPLRVSTESEVYEDPETGVTYVRRRIHVEGGLVVEEELKETVNPEDPGAEVTLVSRRESPALSAGGS [r8_241_JUSTAS]	< -1
SAGGIKELADEGAEIKDVTWPVRFPDGNPMRITEIKPTDGGLDIRFEPPNDGREQEHPIPPDNIEPLPSAGG [r13_340_TrROS]	< -1
SAGGIKPGQQWRIRSPNGPIPIRVRGGQIKIRNNDNGKKRTYPVPGDTIEEIVDDLRDHPGMEIEPLSAGGS [r16_583_TrROS]	< -1
SAGGIRIRPGQKIEDIEFEVEKNPDGEPPIKVKIRWPDKGKPHTYTMTPGQDVGNFADKNGWPIEVVSAGGS [r16_676_TrROS]	< -1
SAGGITLKEIREALKKGHMMRIEGPDGGKRRIPIDDLKDMPGIKPGMPLEDLKVRKIEWVPPDDGQPMSAGG [r13_587_TrROS]	< -1
SAGGIWIDNPDQILDQIKENPNQPRTIQVPMDPDNGQIPPDIKKALKEPGMPVQHDPNGYMTFKIPPSAGGS [r16_335_TrROS]	< -1
SAGGKELVEKLLAEGGVKPVKIETKEGKPKIEVLAPKPELGKKLVEKLKKDPRIEEVNIKPYKPEELSAGGS [r16_671_TrMRF]	< -1
SAGGKITIEMPEDGMYRITIRNPNKGEPVSEIPIPANQIQELAKENGEPMPIEDIVRKLGYPIEIERYSAGG [r13_836_TrROS]	< -1
SAGGMEEKVINIPLSNGEEATITITIENEPGKNKAIVPINSKSVPAEELAKKLKKELPESITDLTVVKSAGG [r13_404_JUSTAS]	< -1
SAGGMIIDDPDALLDAIKENPNTPLVFLVPTDPATGTVDPAVIDAVVEPGFPVERDPDGYVRFIFPKSAGGS [r16_335_TrMRF]	< -1
SAGGMKAKIIPFTVAGGAYEPETGELKKPVPVKVTLIEVEPEPDVKVEEIAEEFEKAFPGKGVIVAPSAGGS [r8_30_TrMRF]	< -1
SAGGMPLEKIKEIKLVKEKEDGEKEILIVVEDPELVKEGNVEEVKKLAEALAEELKKKGIKVKIEVKPSAGG [r13_243_TrROS_Hall]	< -1
SAGGMPPGQKKTITLEMNEPGYFRIHNPNGGQEREFPINPDQSPSEFLDWAEDFAEDYGYPVEIEWHSAGGS [r16_446_TrROS]	< -1
SAGGMSPNQKVTIEIDNWHPGPGGNYFNVRIRNPGNGKPREINGPGDNPEDMKKEIEELVKAGPIEIYSAGG [r13_286_TrROS]	< -1
SAGGMTKTYDPNGRTITELPDGTVVETTVDPSKPLTKVTTTTVEGDNVVSSTEILQEVSLPETSPYLSAGGS [r8_142_JUSTAS]	< -1
SAGGMTLESEVTTLPDGTVVTKTTTVYPDGTVTTKTTTTSVPAGPPTVVRTLPDGSRVRDPTGEWTALSAGG [r13_151_JUSTAS]	< -1
SAGGMVVITTDDPDDLERLAEAVEELKRALAEAGATEPGVKVDVVIEKRPTPDGTLRYVAPVFVGLPSAGGS [r16_591_TrMRF]	< -1
SAGGNLKIEMGDNPHEIPVDPNQVDTPEEAIEEVADQIRNRFPQFGPFRVRVETEGGKEIAMINIKPKSAGG [r13_257_TrROS]	< -1
SAGGPGPPPLEPVVVPVDDGVAVFTRSPDGSLHVEIGPRSGPVVASATAPLPEDSELTVDAVVLPEELSAGG [r13_584_TrMRF]	< -1

Sequence	folding stability dG unfold [kcal/mol]
SAGGPKIDVEKEKSPERGRRKIEIRWPGSGQEMDIFLPDDDPDKIAKALQNAPFGSFHEAIREALRDSAGGS [r8_484_TrROS]	< -1
SAGGPMREYTIKLPGKKITINEMPNPNGNEMTQVSVRDGGEPKRPVNMPNDNADEFAKKPGIKPDDIVSAGG [r13_108_TrROS]	< -1
SAGGPVSEEIVTEKKTLEEDPKNGNTYSEIIMKTPNETIKVKGVKHPSGSTTYTVYTPNSKIATVNVSSAGG [r13_146_JUSTAS]	< -1
SAGGSAEPKPGVKAILFNENGEPIKEVSENEEILLPNGTPTKVYRLPDNSSIATHPDGYVALFVEGSAGGSA [r15_845_TrMRF]	< -1
SAGGSAGEKTLKIVIEGKDKEKVVKEAKPLLEKLFGAKEIKVKVEPLPDGGYKVPIEITVPPGAAKSAGGSA [r15_173_TrMRF]	< -1
SAGGSAGGAVRVDDSEIGPDRAAPLPGNRSLEVRPDSVTVTTTDPSTNTPTTTTLPYSEVERLLSAGGSAGG [r6_942_JUSTAS]	< -1
SAGGSAGGDYKLEPDDIEPMPDGWYQVEIEIEQRDPDGEPETRDIPVWMPPGQTAKDMAKWLIKSAGGSAGG [r6_329_TrROS]	< -1
SAGGSAGGGMMKTITITESVVLEVRPVTSENGRVYPEVLSEVLKTTTVPFPPGNEEEIEKAIKESAGGSAGG [r6_738_JUSTAS]	< -1
SAGGSAGGGNTPRPRPRSVVTKLNVSPDTVPPEELKAKHPDIEVSYSPNSLTARVPVNGELVESSAGGSAGG [r6_739_JUSTAS]	< -1
SAGGSAGGIKIDPNIKEITWHQNPNGMFYHTIKVDEGKKVAPVRFPPDQPPEQMWDNAKEALKESAGGSAGG [r6_436_TrROS]	< -1
SAGGSAGGITVTIDMNEGYYRIKVEYPGNGKKREIPISGPPDDLASELEDEFGYPVKDVEIEKWSAGGSAGG [r6_763_TrROS]	< -1
SAGGSAGGKPIVFKGKHDGKEMIFPIELNPENGQIKITPMNGKELRIPPNKPPKIVEVDPNDFESAGGSAGG [r6_174_TrROS]	< -1
SAGGSAGGMDEKLYITTAEVTVKEDGAPVPSTMTFKSKEEIEKYVKETFPPENVELKITTYPELSAGGSAGG [r6_114_JUSTAS]	< -1
SAGGSAGGMEAVLEALKELPPDEEKVITVPHPDDPRYVVRFTLRRKGDEIEIPVEKKPIPPGLASAGGSAGG [r6_392_TrMRF]	< -1
SAGGSAGGMEKADKLAAALVEKGIPFHVKKVEVFEVRIPPADKELGEVVLPAVKIGLDDKVLLASAGGSAGG [r6_686_TrMRF]	< -1
SAGGSAGGMKTEVVEETVPLRNEDGKLLPSDALLETELPDKKVLTLVERDPNSDTVKTTRVILESAGGSAGG [r6_659_JUSTAS]	< -1
SAGGSAGGMSLIVKSEEEAREILKKLGWKVKKLNITKLKDESGTVKIPVEIEPVPKGKLSEELISAGGSAGG [r6_981_JUSTAS]	< -1
SAGGSAGGNWETIPIKGDPKQMVDEAREENPRNVRIYNPNNGKKHEFPPGLPLDDFPGMYVQRRSAGGSAGG [r6_858_TrROS]	< -1
